± gives the standard deviation of the averaged measurements.
System: ATP
Assay: switch fluorescence ratio, 500 uM ATP over buffer (Cy3 cluster intensity, sum of 5 cycles each) (fold (ratio)); higher = stronger signal-on switching upon ATP binding; sequences stand for … in TCGTCGGCAGCGTCAGATGTGTATAAGAGACAGTTTTTTTTTTTTTTTTTTTTTTTTT…TC
Conditions: aptamer strand: ATP DNA aptamer (quencher-CACCTGGGGGAGTATTGCGGAGGAAGG + anchor), 100 nM annealed; ATP concentration: 500 uM
How it was run: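 For every switch-domain sequence, the fluorescence ratio is the mean of per-cluster values, each being summed target-cycle Cy3 intensity over summed buffer-cycle Cy3 intensity. Clusters outside 100-1000 RFU were excluded. On a modified Illumina MiSeq flow-cell, the Cy3-labelled switching-strand clusters were annealed to 100 nM quencher-labelled ATP aptamer, imaged in selection buffer and then after 15 min with 500 uM ATP at 22 °C. Five such cycles were run, with NaOH stripping and re-annealing between them.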
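Also: ATP exposure 15 min at 22 °C before imaging.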

TTTGGAAAAA and TTTGGAAAAC are within error of each other in switch fluorescence ratio: 0.996 ± 0.032 for the first, 0.9853 ± 0.0027 for the second.

TTTGGAAATT and TTTGGAAGCC are within error of each other in switch fluorescence ratio: 1.43 ± 0.61 for the first, 1 ± 0.041 for the second.

TTTGGAATAG and TTTGGAATAT are within error of each other in switch fluorescence ratio: 1.06 ± 0.045 for the first, 1.04 ± 0.013 for the second.

First: TTTGGACAGT
Second: TTTGGAGGTG
The switch fluorescence ratio of the first is lower: 0.978 ± 0.03 for the first, 1.04 ± 0.024 for the second.

TTTGGATGCG and TTTGGATTGG are within error of each other in switch fluorescence ratio: 1.01 ± 0.077 for the first, 0.967 ± 0.023 for the second.

TTTGGATTTA and TTTGGATTTC are within error of each other in switch fluorescence ratio: 1.03 ± 0.057 for the first, 1 ± 0.013 for the second.

TTTGGCCTAG and TTTGGCGGAG are within error of each other in switch fluorescence ratio: 1.02 ± 0.041 for the first, 0.992 ± 0.03 for the second.

TTTGGCTAAA and TTTGGCTGTT are within error of each other in switch fluorescence ratio: 1 ± 0.044 for the first, 0.998 ± 0.029 for the second.

TTTGGCTTAA and TTTGGCTTTG are within error of each other in switch fluorescence ratio: 0.9962 ± 0.006 for the first, 1.02 ± 0.05 for the second.

TTTGGGATCG and TTTGGGATCT are within error of each other in switch fluorescence ratio: 0.98 ± 0.045 for the first, 0.9881 ± 0.0098 for the second.

Compared with TTTGGGATTG, TTTGGGCGAG is lower in switch fluorescence ratio: 1.07 ± 0.015 for the first, 0.976 ± 0.045 for the second.

TTTGGGCTTC and TTTGGGGAAG are the same in switch fluorescence ratio: 1.0067 ± 0.00097 for the first, 1.01 ± 0.025 for the second.

TTTGGGGAGG and TTTGGGGCAT are within error of each other in switch fluorescence ratio: 1.02 ± 0.058 for the first, 1.032 ± 0.0027 for the second.

TTTGGGGGAT and TTTGGGGGGA are within error of each other in switch fluorescence ratio: 1.02 ± 0.1 for the first, 1.05 ± 0.21 for the second.

TTTGGGGGGT and TTTGGGGGTA are within error of each other in switch fluorescence ratio: 0.985 ± 0.02 for the first, 1.06 ± 0.068 for the second.

TTTGGGGGTC and TTTGGGGTCC are within error of each other in switch fluorescence ratio: 1.1 ± 0.24 for the first, 1.07 ± 0.1 for the second.

TTTGGGGTCG and TTTGGGGTTT are within error of each other in switch fluorescence ratio: 0.992 ± 0.034 for the first, 1.07 ± 0.24 for the second.

Going from TTTGGGTATT to TTTGGGTCTC, the switch fluorescence ratio rises from 0.9684 ± 0.0013 to 0.998 ± 0.019.

TTTGGGTGGA and TTTGGGTTAC are within error of each other in switch fluorescence ratio: 1.02 ± 0.05 for the first, 1.04 ± 0.044 for the second.

Going from TTTGGGTTCA to TTTGGGTTCC, the switch fluorescence ratio rises from 0.972 ± 0.026 to 1.44 ± 0.35.

TTTGGTCATA and TTTGGTCGC are within error of each other in switch fluorescence ratio: 0.983 ± 0.024 for the first, 0.9851 ± 0.0012 for the second.

Compared with TTTGGTGACG, TTTGGTGTCT is lower in switch fluorescence ratio: 1.09 ± 0.029 for the first, 0.96 ± 0.025 for the second.

TTTGGTTAAT and TTTGGTTAGT are within error of each other in switch fluorescence ratio: 0.959 ± 0.027 for the first, 0.991 ± 0.023 for the second.

TTTGGTTGAA and TTTGGTTGAC are within error of each other in switch fluorescence ratio: 1.03 ± 0.088 for the first, 1.02 ± 0.053 for the second.

TTTGGTTTGG and TTTGTAAAAT are within error of each other in switch fluorescence ratio: 1.01 ± 0.036 for the first, 0.99 ± 0.021 for the second.

TTTGTACAAC and TTTGTACCGT are within error of each other in switch fluorescence ratio: 1.01 ± 0.05 for the first, 1.06 ± 0.1 for the second.

TTTGTACTTC and TTTGTATATT are within error of each other in switch fluorescence ratio: 1.02 ± 0.049 for the first, 1.01 ± 0.053 for the second.

TTTGTATGGA and TTTGTATTGG are within error of each other in switch fluorescence ratio: 0.973 ± 0.011 for the first, 0.998 ± 0.035 for the second.

TTTGTCAGAC and TTTGTCATTC are within error of each other in switch fluorescence ratio: 1.03 ± 0.054 for the first, 1 ± 0.0017 for the second.

First: TTTGTCATTT
Second: TTTGTCCTTT
The switch fluorescence ratio of the first is lower: 0.98 ± 0.016 for the first, 1.029 ± 0.0084 for the second.

TTTGTCGCCG and TTTGTCGTAA are within error of each other in switch fluorescence ratio: 1.01 ± 0.029 for the first, 0.999 ± 0.0014 for the second.

TTTGTCTAGG and TTTGTGACAG are within error of each other in switch fluorescence ratio: 0.994 ± 0.019 for the first, 1.02 ± 0.018 for the second.

TTTGTGAGGA and TTTGTGATTA are within error of each other in switch fluorescence ratio: 0.996 ± 0.034 for the first, 0.9954 ± 0.0093 for the second.

TTTGTGGATG and TTTGTGGCTA are within error of each other in switch fluorescence ratio: 0.985 ± 0.03 for the first, 1.03 ± 0.031 for the second.

TTTGTGGGGG and TTTGTGGTCT are within error of each other in switch fluorescence ratio: 1.01 ± 0.041 for the first, 0.991 ± 0.032 for the second.

TTTGTGTTG and TTTGTGTTGT are within error of each other in switch fluorescence ratio: 0.977 ± 0.024 for the first, 1.015 ± 0.0099 for the second.

TTTGTTAAGC and TTTGTTAGA are within error of each other in switch fluorescence ratio: 0.973 ± 0.061 for the first, 0.988 ± 0.012 for the second.

TTTGTTAGCA and TTTGTTAGGC are within error of each other in switch fluorescence ratio: 0.98708 ± 0.0008 for the first, 0.991 ± 0.029 for the second.

TTTGTTAGGG and TTTGTTCACT are within error of each other in switch fluorescence ratio: 0.994 ± 0.022 for the first, 0.989 ± 0.041 for the second.

First: TTTGTTCATT
Second: TTTGTTCGGT
The switch fluorescence ratio of the first is lower: 0.953 ± 0.019 for the first, 1.01 ± 0.013 for the second.

TTTGTTCTT and TTTGTTGCA are within error of each other in switch fluorescence ratio: 1 ± 0.014 for the first, 1.02 ± 0.011 for the second.

TTTGTTGGCA and TTTGTTTATC are within error of each other in switch fluorescence ratio: 0.986 ± 0.024 for the first, 1.02 ± 0.057 for the second.

Sequence TTTGTTTCGA has a switch fluorescence ratio of 1.05 ± 0.11.

From the supplement of paper PMC10126150
